Here are results for 17 molecules from US20170129961A1 (Amgen, published 2017).

The target of test [1] is T1, human CD70 (human, UniProt P32970 1-193).
T1 construct: also called hu CD70; CD27L
T1 sequence: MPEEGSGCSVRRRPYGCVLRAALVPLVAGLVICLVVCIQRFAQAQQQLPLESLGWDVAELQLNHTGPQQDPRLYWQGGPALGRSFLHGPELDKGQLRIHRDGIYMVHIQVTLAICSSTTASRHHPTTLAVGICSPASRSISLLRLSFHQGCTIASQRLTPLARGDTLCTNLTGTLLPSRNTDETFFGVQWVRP
In words: FACS on CHO cells, periplasmic scFv.
Description: (§1) All antibodies were diluted in PBS/1.5% FCS. As negative control, cells were incubated with PBS/2% FCS instead of the periplasmic extract. The samples were measured by flow cytometry.

The target of test [2] is T2, full-length mouse CD70 with C-terminal V5 tag (mouse, UniProt O55237 1-195).
T2 construct: On transfected CHO cells; also called murine CD70
T2 sequence: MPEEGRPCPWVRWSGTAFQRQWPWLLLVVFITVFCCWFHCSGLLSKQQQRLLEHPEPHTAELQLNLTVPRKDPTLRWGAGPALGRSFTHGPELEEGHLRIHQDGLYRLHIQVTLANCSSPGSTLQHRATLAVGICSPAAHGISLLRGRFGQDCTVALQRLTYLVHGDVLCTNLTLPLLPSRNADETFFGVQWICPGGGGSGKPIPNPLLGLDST
In words: FACS on CHO cells, periplasmic scFv.
Description: as §1

B1: CD70-32 (scFv)
scFv: EVQLLESGGGMVQPGGSLRLSCAASGFTFSSYAMSWVRQAPGKGLEWVSAISGSGGRTFYADSVEGRFTISRDNSKNTLYLQMNSLRAEDTAVYYCTKHDYSNYPYFDYWGQGTLVTVSSGGGGSGGGGSGGGGSEIVLTQSPGTLSLSPGERATLSCRASQGVRSDYLAWYQQKPGQAPRLLIYGASSRATGIPDRFSGSGSGTDFTLTISRLEPEDFAVYHCQQYGSTPPTFGGGTKVEIK
notes: As m32
Take B1: the figures for the binding result in test [1] and in test [2] were “binds” and “no binding”, respectively.

B2: CD70-20 (scFv)
scFv: EVQLLESGGGLVQPGGSLRLSCAASGFTFSTYAMSWVRQAPGKGLEWVSLISGSGGRTYYADSVKGRFTISRDNSKNTLYLQMNSLRAEDTAVYYCAKHDYSNYPYFDYWGQGTLVTVSSGGGGSGGGGSGGGGSEIVLTQSPGTLSLSPGERATLSCRASQGVRSDYLAWYQQKPGQALRLLIYGASSRATGIPDRFSGSGSGTDFTLTISRLEPEDFAVYHCQQYGSTPPTFGGGTKLEIK
notes: As m32
For the molecule B2, the binding result is on record as “binds” in test [1] and “no binding” in test [2].

B3: CD70-39 (scFv)
scFv: EVQLLESGGGVVQPGRSLRLSCAASGFTFSSYAMSWVRQAPGKGLEWVSAISGSGGGTFYADSVEGRFTISRDNSKNTLYLQMNSLRAEDTAVYYCARHDYSNYPYFDYWGLGTLVTVSSGGGGSGGGGSGGGGSEIVLTQSPGTLSLSPGERATLSCRASQSVRSSYLAWYQQKPGQAPRLLIYGASSRATGIPDRFSGSGSGTDFTLTISRLEPEDFAVYSCQQYGDLPFTFGPGTKVEIK
notes: As m32
Consider B3, for which the binding result in test [1] is “binds”; in test [2] it was “no binding”.

B4: CD70-74 (scFv)
scFv: EVQLLESGGGLVQPGGSLRLSCAASGFTFSSYAMSWVRQAPGKGLEWVSAISGSGGSTFYADSVQGRFTISRDNSKNTLYLQVNSLRAEDTAVYYCARHDYSNYPYFDYWGQGTLVTVSSGGGGSGGGGSGGGGSEIVLTQSPGTLSLSPGERATLSCRASQSVRGNYLAWYQQKPGQAPRLLIYGASSRATGIPDRFSGSGSGTDFTLTISRLEPEDFAVYYCQQYGYSPFTFGPGTKVDIK
notes: As m32
Consider B4, for which the binding result in test [1] was “binds”; in test [2], “no binding”.

B5: CD70-42 (scFv)
scFv: EVQLLESGGGLVQPGGSLRLSCAASGFTFSTYAMSWVRQAPGKGLEWVSLISGSGGRTYYADSVKGRFTISRDNSKNTLYLQMNSLRAEDTAVYYCAKHDYSNYPYFDYWGQGTLVTVSSGGGGSGGGGSGGGGSEIVLTQSPGTLSLSPGERATLSCRASQGVRSSYLAWYQQKPGQAPRLLIYGASSRATGIPDRFSGSGSGTDFTLTINRLEPEDFAVYYCQQYGSSPPTFGGGTKVDIK
notes: As m32
Take B5: the results for the binding result in test [1] and in test [2] were “binds” and “no binding”, respectively.

B6: CD70-66 (scFv)
scFv: EVQLLESGGGLVQPGGSLRLSCAASGFTFSSYAMSWVRQAPGQCLEWVSAISGSGGRTYYADSVKGRFTISRDNSKNTLYLQMNSLRAEDTAVYYCAKHDYSNYPYFDYWGQGTLVTVSSGGGGSGGGGSGGGGSEIVLTQSPGTLSLSPGERATLSCRASQSVRGSYLAWYQQKPGQAPRLLIYSASSRATGIPDRFSGSGSGTDFTLTISRLEPEDFAVYYCQQYGDSPFTFGCGTKVEIK
notes: As m32
With B6, the binding result is “binds” in test [1] and “no binding” in test [2].

B7: CD70-43 (scFv)
scFv: EVQLLESGGGVVQPGRSLRLSCAASGFTFSSYAMSWVRQAPGKGLEWVSAISGSGGRTFYADSVEGRFTISRDNSKNTLYLQMNSLRAEDTAVYYCAKHDYSNYPYFDYWGQGTLVTVSSGGGGSGGGGSGGGGSEIVLTQSPGTLSLSPGERATLSCRASQSVRSNYLAWYQQKPGQAPRLLIYGASSRATGIPDRFSGSGSGTDFTLTINRLEPEDFAVYYCQQYGSSPPTFGGGTKVDIK
notes: As m32
For B7, the binding result in test [1] is given as “binds”; in test [2] it was “no binding”.

B8: CD70-41 (scFv)
scFv: EVQLLESGGGMVQPGGSLRLSCAASGFTFSSYAMSWVRQAPGKGLEWVSAISGSGGRTFYADSVEGRFTISRDNSKNTLYLQMNSLRAEDTAVYYCTKHDYSNYPYFDYWGQGTLVTVSSGGGGSGGGGSGGGGSEIVLTQSPGTLSLSPGERATLSCRASQSVRSSYLAWYQQKPGQAPRLLIYGASSRATGIPDRFSGSGSGTDFTLTISRLEPEDFAVYYCQQYGDLPFTFGPGTKVDIK
notes: As m32
As to B8, the binding result in test [1] is on record as “binds”; in test [2] it was “no binding”.

B9: CD70-40 (scFv)
scFv: EVQLLESGGGMVQPGGSLRLSCAASGFTFSSYAMSWVRQAPGKGLEWVSAISGSGGRTFYADSVEGRFTISRDNSKNTLYLQMNSLRAEDTAVYYCAKHDYSNYPYFDYWGQGTLVTVSSGGGGSGGGGSGGGGSEIVLTQSPGTLSLSPGERATLSCRASQSIRSSYLAWYQQKPGQAPRLLIYGASSRATGIPDRFSGSGSGTDFTLTISRLEPEDFAVYYCQQYGDLPFTFGPGTKVDIK
notes: As m32
On to B9, for which the binding result in test [1] is “binds”; in test [2], “no binding”.

B10: CD70-36 (scFv)
scFv: EVQLLESGGGLVQPGGSLRLSCAASGFTFSSYAMSWVRQAPGQGLEWVSAISGSGGRTYYADSVKGRFTISRDNSKNTLYLQMNSLRAEDTAVYYCAKHDYSNYPYFDYWGQGTLVTVSSGGGGSGGGGSGGGGSEIVLTQSPGTLSLSPGERATLSCRASQSVRGSYLAWYQQKPGQAPRLLIYSASSRATGIPDRFSGSGSGTDFTLTISRLEPEDFAVYYCQQYGDSPFTFGPGTKVEIK
notes: As m32
B10: the binding result is given as “binds” in test [1] and “no binding” in test [2].

B11: CD70-38 (scFv)
scFv: EVQLLESGGGVVQPGRSLRLSCAASGFTFSSYAMSWVRQAPGKGLEWVSAISGSGGRTFYADSVEGRFTISRDNSKNTLYLQMNSLRAEDTAVYYCAKHDYSNYPYFDYWGQGTLVTVSSGGGGSGGGGSGGGGSEIVLTQSPGTLSLSPGERATLSCRASQSIRSNYLAWYQQKPGQAPRLLIYGASSRATGIPDRFSGSGSGTDFTLTISRLEPEDFAVYYCQQYGSSPPSFGQGTKVEIK
notes: As m32
Turning to B11, the results for the binding result in test [1] and in test [2] were “binds” and “no binding”, respectively.

B12: CD70-54 (scFv)
scFv: EVQLLESGGGLVQPGGSLRLSCAASGFTFSIYAMSWVRQAPGKGLEWVSAIGDSGGSTFYADSVKGRFTISRDNSKNTLYLQMNSLRAEDTAVYYCAKHDYSNYPYFDYWGQGTLVTVSSGGGGSGGGGSGGGGSEIVLTQSPGTLSLSPGERATLSCRASQSVRSSYVAWYQQKPGQAPRLLIYGASSRATGIPDRFSGSGSGTDFTLTISRLEPEDFAVYYCQQYGDLPFTFGPGTRLEIK
notes: As m32
In the case of B12, the binding result in test [1] was “binds”; in test [2], “no binding”.

B13: CD70-44 (scFv)
scFv: EVQLLESGGGLVQPGGSLRLSCAASGFTFSSYAMSWVRQAPGKGLEWVSVISDSGGITDFADSVKGRFIISRDNSRNTLYLQMNSLRAEDTAVYFCARHDYSNYFFFDYWGQGTLVTVSSGGGGSGGGGSGGGGSDIQMTQSPSSLSASVGDRVTITCRASQDISNYLNWYQQKSGKAPELLIYAASSLQSGVPSRFSGSGSGTDFTLTISSLQPEDFATYYCQQSYISPPTFGQGTKVEIK
notes: As m32
For the molecule B13, the binding result in test [1] is given as “binds”; in test [2] it was “no binding”.

B14: CD70-37 (scFv)
scFv: EVQLLESGGGLVQPGGSLRLSCAASGFTFSSYAMSWVRQAPGKGLEWVSAIGDGGGYTYYADSVKGRFTISRDNSKNTLSLLMNSLRAEDTAVYYCARHDYSNYPYFDYWGQGTLVTVSSGGGGSGGGGSGGGGSEIVLTQSPGTLSLSPGERATLSCRASQGVRSSYFAWYQQKPGQAPRLLIYGASTRATGIPARFSGSGSGTDFTLTISRLEPEDFAVYYCQQYGSSPPTFGQGTKVEIK
notes: As m32
Regarding B14, the binding result in test [1] is given as “binds”; in test [2], “no binding”.

B15: CD70-33 (scFv)
scFv: EVQLLESGGGLVQPGGSLRLSCAASGFTFSTYAMSWVRQAPGKGLEWVSTISDSGGSTFYADSVMGRFTISRDNSKNTLYLQMNSLRAEDTAVYYCARHDYSNYAFFDYWGQGTLVTVSSGGGGSGGGGSGGGGSEIVLTQSPATLSVSPGERATLSCRASQSVSSNLAWYQQKPGQAPRLLIYGASSRATGIPDRFSGSGSGTDFTLTISSLQAEDVAVYYCQQYYSTPFTFGPGTKVEIK
notes: As m32
As to B15, the binding result in test [1] was “binds”; in test [2], “no binding”.

B16: CD70-34 (scFv)
scFv: EVQLLESGGGLVQPGGSLRLSCAASGFTFSTYAMSWVRQAPGKGLEWVSTISDSGGSTFYADSVMGRFTISRDNSKNTLYLQMNSLRAEDTAVYYCARHDYSNYAFFDYWGQGTLVTVSSGGGGSGGGGSGGGGSEIVLTQSPATLSVSPGERATLSCRASQSVSSNLAWYQQKPGQAPRLLIYGASTRATGIPARFSGSGSGTEFTLAISRLEPEDFAVYYCQQYYSTPFTFGGGTKVEIK
notes: As m32
As to B16, the binding result in test [1] is reported as “binds”; in test [2], “no binding”.

B17: CD70-29 (scFv)
scFv: EVQLLESGGGLVQPGGSLRLSCAASGFNFASYAMSWVRQAPGKGLEWVSVISGSGGRTHYADSGKGRFTISRDNSKNTLYLQMNSLRAEDTAVYYCAKHDYSNYPYFDYWGQGTLVTVSSGGGGSGGGGSGGGGSEIVLTQSPGTLSLSPGERATLSCRASQSVRSSYLAWYQQKPGQAPRLLIFGASSRATGIPDRFSGSESGTDFTLTINRLEPEDFAVYYCEQYGNSPPTFGGGTKVEIK
notes: As m32
In the case of B17, the binding result in test [1] is “binds”; in test [2], “no binding”.
